From PMC4164784, “4E-BPs require non-canonical 4E-binding motifs and a lateral surface of eIF4E to repress translation” (Nature Communications, 2014)
No end group written: not given here.

Biological target: T1, eIF4E–eIF4G complex (eIF4E WT; eIF4G residues 578–650) (Drosophila melanogaster, UniProt P48598)
T1 construct: full-length eIF4E (WT or the II-AA mutant) containing an N-terminal SNH-tag was coexpressed; made in house; host or cells: E. coli BL21 Star (DE3), coexpression
T1 sequence (P48598 1-248 isoform P48598-2): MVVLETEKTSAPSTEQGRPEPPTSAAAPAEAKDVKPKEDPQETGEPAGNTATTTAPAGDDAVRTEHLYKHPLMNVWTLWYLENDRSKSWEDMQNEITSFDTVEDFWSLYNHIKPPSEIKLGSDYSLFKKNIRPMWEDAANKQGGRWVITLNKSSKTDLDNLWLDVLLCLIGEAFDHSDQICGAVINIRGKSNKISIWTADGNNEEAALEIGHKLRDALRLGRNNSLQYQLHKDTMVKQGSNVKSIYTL
Assay: Kinetic dissociation of eIF4E–eIF4G complexes by competitor
Format: biochemical
Settings: 1 μM complex on Strep-Tactin beads; fivefold molar excess of C+NC peptide (5 μM); CUP n=3, 4E-T n=2 averages
Protocol: To obtain the preassembled eIF4E–eIF4G complexes used in Figs 4 and 5d–g, full-length eIF4E (WT or the II-AA mutant) containing an N-terminal SNH-tag was coexpressed with an N-terminal GST-tagged eIF4G (residues 578–650). The cells were lysed by sonication in lysis buffer containing 50 mM HEPES (pH 7.2), 300 mM NaCl and 2 mM DTT. The complexes were purified from the cleared lysates using Protino Glutathione Agarose 4B beads (Machery-Nagel). The complex was further purified using a heparin column (HiTrap Heparin HP 5 ml, GE Healthcare) and a final size exclusion chromatography (Superdex 200 16/60, GE Healtcare) in 20 mM HEPES (pH 7.2), 200 mM NaCl and 2 mM DTT.
In the ‘kinetic assays’ shown in Fig. 5d–g, the purified complexes containing SHN-eIF4E and GST-eIF4G (578–650; 1 μM) were incubated with Strep-Tactin beads for 20 min. […] The eIF4E-associated proteins were pulled down, eluted and analyzed as described above. […]
The amounts of GST-eIF4G bound to eIF4E in each experimental condition were determined using the Image J software after Coomassie blue staining. […]
Each experiment was repeated at least twice. (e,f) Quantification of the experiments shown in Fig. 5d–g. […]
micrographs of fixed S2 cells expressing HA-4E-T and GFP-Tral. The localization of HA-4E-T was determined by indirect immunofluorescence using an anti-HA antibody. […]

CUP C+NC: CUP residues 325–376, eIF4E-binding region short, C-terminal GB1 (KSYTRSRLMDIRNGMFNALMHRSKESFVMPRIATCDDIELEGRLRRMNIWRT-GB1; UniProt Q9VMA3 325-376, looked up, fragment)
time to 50% eIF4G dissociation: 2.5 ± 0.5 min
